{"source": "patent US20110293603A1", "about": "(Ablynx, published 2011)", "binders": {"B1": {"name": "Nanobody 98B9 (VHH)", "VHH": "EVQLVESGGGLVQAGGSLRLSCAASIGTFSAYHMGWFRQAPGKERELVAAISWSVSSTYYADSVKGRFTISRDNAKRTVSLQMDSLKPEDTAVYYCAARSGERYDYYKAQYEYWGQGTQVTVSS", "notes": "Myc-tagged (detected with anti-Myc 9E10)"}, "B2": {"name": "Nanobody 98E9 (VHH)", "VHH": "EVQLVESGGGLVQPGGSLRLSCAAYGSFFSIGTMGWYRQPPGNQRELVAVTYGLGSTNYAESVKGRFTISRDNAKNTVSLQMNSLKPEDTAVYYCYAEIDTDPRSGEWDYWGQGTQVTVSS", "notes": "as for B1"}, "B3": {"name": "Nanobody 105F7 (VHH)", "VHH": "EVQLVESGGGLVQAGGSLRLSCAASGRTFSNYAMGWFRQAPGKEREFVAAITWSGSSTYYADSVKGRFTISRDNAKNTVYLQMNSLKPEDTAVYYCAAAQRGRYYYLDRNVEYDYWGQGTQVTVSS", "notes": "as for B1"}, "B4": {"name": "Nanobody 105A8 (VHH)", "VHH": "EVQLVESGGNLVQAGGSLRLSCAASGFTFDDYVIGWFRQAPGKEREGVSCISSVEGSTYYADSVKGRFTISGDNAKNTVYLQMNSLKPEDTAVYYCAAGTWLDCSGYGSYDMDYWGKGTLVTVSS", "notes": "as for B1"}, "B5": {"name": "Nanobody 99C9 (VHH)", "VHH": "EVQLVESGGGLVQVGGSLRLSCAASGISIRTHAMGWYRQAPGKQRELVATITSVTSGGSLNYADSVKGRFTISRDNAKNTVYLQMNSLKPEDTAVYYCKLLGFDYRGQGTQVTVSS", "notes": "as for B1"}, "B6": {"name": "Nanobody 49C5 (negative control, irrelevant nanobody against alphaFcgRI) (VHH)", "VHH": "EVQLVESGGGLVQAGGSLGLSCVASGRTFVSGGMGWFRQAPGKEREFVASIVWIGGRTYYADSVKGRFTISGDNAKSTVTLQMNSLKPEDTATYYCADGDLATGTYDYWGQGTQVTVSS", "notes": "Negative control; generation published in WO2008/074867; Myc-tagged (detected with 9E10)"}, "B7": {"name": "Nanobody 98D8 (VHH)", "VHH": "EVQLVESGGGLVQPGGSLRLSCAASGSIFTINAMAWYRQAPGKQRELVAHLTNSGRTGYADSVKGRFTISSDNAKNTVYLQMNSLKPEDTAVYYCNRLGLHWSWGQGTQVTVSS", "notes": "as for B1"}, "B8": {"name": "Nanobody 98F12 (VHH)", "VHH": "EVQLVESGGGLVQAGGSLRLSCAASGFTFDDYAIGWFRQAPGKEREGVSCVSRDGGSTYYLDSVKGRFTISSDNAKNTVYLQMNSLKPEDAAVYYCAASRYDCSKYLIDYNYRGQGTQVTVSS", "notes": "as for B1"}, "B9": {"name": "Nanobody 105G11 (VHH)", "VHH": "EVQLVESGGGLVQAGGSLRLSCAASGRTFSRYAMAWFRHAPGKDREFVAAVSQSGLLTFYADSVKGRFTISRDNAKNTVYLQMNSLKPEDTAVYDCAADSRFPLVVPVAYENWGQGTQVTVSS", "notes": "as for B1"}, "B10": {"name": "Nanobody 98A10 (VHH)", "VHH": "EVQLVESGGGLVQPGGSLRLSCLPSTSTSSLRTVGWYRQGPGKQRDLVAIMSAGTTRYADSVKGRFTISLDDAKNTVYLQMNSLKPEDTAVYICNGRPVFSNVDYWGQGTQVTVSS", "notes": "as for B1"}, "B11": {"name": "Nanobody 99D3 (VHH)", "VHH": "EVQLVESGGGLVQPGGSLRLSCAASGFTLGNYAIGWFRQAPGKEREGVSCVDRDGGSTYYLDSVTGRFTTSRDDAENTVYLQMNSLIPDDTAVYYCATRLYGCSGYGRDYADWGQGTQVTVSS", "notes": "as for B1"}, "B12": {"name": "Nanobody 99C8 (VHH)", "VHH": "EVQLVESGGGLVQPGGSLRLSCAASGSIGRFVAMGWYRQAPGKQRELVATITSITSGGRTNYADSVKGRFTISRDNAKNTVYLQMNSLKPEDTAVYYCNVVPYVNDYWGQGTQVTVSS", "notes": "Myc-tagged (detected with anti-Myc 9E10); also called 99C8 α SR-A1"}, "B13": {"name": "Nanobody 105B8 (VHH)", "VHH": "EVQLVESGGGLVQAGGSLRLSCAASGFTFDDYVIGWFRQAPGKEREGVSCISSSEGSTYYAESVKGRFTISSDNAKNTVYLQMNSLKPEDTAVYYCAASTWLDFVHGNEYDYRGQGTQVTVSS", "notes": "as for B1"}}, "key": {"[1]": {"biological_target": "T1, extracellular part of recombinant human Lox-1 fused to polyhistidine tag (R&D Systems, cat nr. 1798-LX) (human, UniProt P78380 61-273)", "assay": "ELISA, rhLox-1 coated at 2 ug/ml, nanobody 1-1000 nM, detection with anti-Myc 9E10"}, "[2]": {"biological_target": "T2, extracellular part of recombinant human SR-A1 fused to polyhistidine tag (R&D Systems Cat No 2708-MS) (human, UniProt P21757 77-451)", "T2 construct": "range 77-451; Bought protein; that entry was therefore not used; also called rhSRA-1", "T2 sequence": "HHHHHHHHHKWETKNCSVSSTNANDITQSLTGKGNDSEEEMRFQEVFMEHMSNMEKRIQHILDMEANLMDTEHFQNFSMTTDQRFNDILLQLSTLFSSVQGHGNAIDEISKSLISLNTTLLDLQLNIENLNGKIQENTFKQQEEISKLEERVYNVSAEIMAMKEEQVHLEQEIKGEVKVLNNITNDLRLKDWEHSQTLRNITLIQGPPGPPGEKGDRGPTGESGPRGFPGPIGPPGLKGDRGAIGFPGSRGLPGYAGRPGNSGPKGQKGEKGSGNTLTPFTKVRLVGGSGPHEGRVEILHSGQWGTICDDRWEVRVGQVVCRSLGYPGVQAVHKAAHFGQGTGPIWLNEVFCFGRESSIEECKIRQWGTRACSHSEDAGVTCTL", "assay": "ELISA, rhSRA-1 coated at 2 ug/ml, nanobody 1-1000 nM, detection with anti-Myc 9E10"}, "[3]": {"biological_target": "T1, extracellular part of recombinant human …", "assay": "ELISA, rhLox-1 coated at 2 ug/ml, nanobody detected with anti-Myc 9E10"}, "[4]": {"biological_target": "T2, extracellular part of recombinant human …", "assay": "ELISA, rhSRA-1 coated at 2 ug/ml, nanobody detected with anti-Myc 9E10"}, "[5]": {"biological_target": "T3, extracellular part of recombinant human RAGE fused to human Fc (R&D Systems Cat No 1145-RG) (human, UniProt Q15109 23-342)", "T3 construct": "extracellular domain; Bought protein; they look like the limits of the IgG1 Fc part; also called rhRG; 1145-RAGE; not shown: human Fc region of human IgG1, at the C-terminus", "T3 sequence (Q15109 23-342)": "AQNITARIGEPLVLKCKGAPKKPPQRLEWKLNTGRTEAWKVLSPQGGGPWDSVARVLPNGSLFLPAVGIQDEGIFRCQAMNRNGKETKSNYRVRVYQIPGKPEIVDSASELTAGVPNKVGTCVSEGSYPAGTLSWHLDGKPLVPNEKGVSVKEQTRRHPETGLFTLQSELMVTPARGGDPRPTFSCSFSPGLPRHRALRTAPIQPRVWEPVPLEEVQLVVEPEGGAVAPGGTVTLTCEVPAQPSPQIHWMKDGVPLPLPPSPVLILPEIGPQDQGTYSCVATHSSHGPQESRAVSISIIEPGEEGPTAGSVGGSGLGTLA", "assay": "immunoprecipitation on Talon beads, SDS-PAGE and blot with mouse anti-RAGE and mouse anti-myc", "description": "In order to test the binding of anti-RAGE clones further an Immunoprecipitation experiment was performed. In short, 100 ul of Talon slurry (50 ul beads) was washed carefully with lysis buffer (RIPA without EDTA) (20 mM tris pH7.4; 150 mM NaCl; 0.5% TritonX100; 0.1% SDS). 10 ug of VHHs was added to the beads in 200 ul of lysis buffer and incubate for 30 min hoh. The beads were washed once with lysis buffer and 1 ug of rhRG was added to the beads (100 ul) and incubated for 1 hour. The beads were spinned down and supernatant was removed. The beads were washed twice. Subsequently the beads were boiled for 5 min in sample buffer and the proteins were separated on a SDS PAGE by gel electrophoresis (FIG. 1).\nThe high molecular weight part was detected with mouse-anti-RAGE antibody (R&D systems) and the lower part was detected with mouse anti-myc."}}, "data": [{"binder": "B1", "values": [{"measurement": "binding result", "setting": "[1]", "result": "binds"}]}, {"binder": "B2", "values": [{"measurement": "binding result", "setting": "[1]", "result": "binds"}]}, {"binder": "B3", "values": [{"measurement": "binding result", "setting": "[1]", "result": "binds"}]}, {"binder": "B4", "values": [{"measurement": "binding result", "setting": "[1]", "result": "binds"}]}, {"binder": "B5", "values": [{"measurement": "binding result", "setting": "[2]", "result": "binds"}]}, {"binder": "B6", "values": [{"measurement": "binding result", "setting": "[3]", "result": "no binding (tested: 1-1000 nM)"}, {"measurement": "binding result", "setting": "[4]", "result": "no binding (tested: 1-1000 nM)"}]}, {"binder": "B7", "values": [{"measurement": "binding result", "setting": "[1]", "result": "binds"}]}, {"binder": "B8", "values": [{"measurement": "binding result", "setting": "[1]", "result": "binds"}]}, {"binder": "B9", "values": [{"measurement": "binding result", "setting": "[2]", "result": "binds"}]}, {"binder": "B10", "values": [{"measurement": "binding result", "setting": "[1]", "result": "binds"}]}, {"binder": "B11", "values": [{"measurement": "binding result", "setting": "[5]", "result": "no binding"}]}, {"binder": "B12", "values": [{"measurement": "binding result", "setting": "[2]", "result": "binds"}]}, {"binder": "B13", "values": [{"measurement": "binding result", "setting": "[1]", "result": "binds"}]}]}
